According to patent US20190241648A1 (STATEN BIOTECHNOLOGY B V, published 2019):
Ends that are not written are not given here.

How the values were obtained:
Assay in all cases: peptide microarray
[1] = molecular target: ApoC3 peptide … W65A (human, cyclic constrained)
How it was run: (§1)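 ApoC3 peptide microarrays incubated with antibody samples and then stained with goat anti-human IgG (Fc) DyLight680 plus anti-HA DyLight800 control antibody. Scanned at intensity 7/7 (red/green); a secondary-only prestain checked for background, and framing HA peptides served as quality control.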

[2] = molecular target: T1, ApoC3 peptide … D68A (human, not fully specified (bridges); also: cyclic constrained)
T1 peptide: DKFSEFWDLAPEV
How it was run: as §1

[3] = molecular target: T2, ApoC3 peptide … D66E (human, not fully specified (bridges); also: cyclic constrained)
T2 peptide: DKFSEFWELDPEV
How it was run: as §1

[4] = molecular target: T3, ApoC3 peptide … P69E (human, not fully specified (bridges); also: cyclic constrained)
T3 peptide: DKFSEFWDLDEEV
How it was run: as §1

[5] = molecular target: T4, ApoC3 peptide … L67F (human, not fully specified (bridges); also: cyclic constrained)
T4 peptide: DKFSEFWDFDPEV
How it was run: as §1

[6] = molecular target: T5, ApoC3 peptide … P69F (human, not fully specified (bridges); also: cyclic constrained)
T5 peptide: DKFSEFWDLDFEV
How it was run: as §1

[7] = molecular target: ApoC3 peptide … E63G (human, cyclic constrained)
How it was run: as §1

[8] = molecular target: T6, ApoC3 peptide … F64G (human, not fully specified (bridges); also: cyclic constrained)
T6 peptide: DKFSEGWDLDPEV
How it was run: as §1

[9] = molecular target: T7, ApoC3 peptide … E70G (human, not fully specified (bridges); also: cyclic constrained)
T7 peptide: DKFSEFWDLDPGV
How it was run: as §1

[10] = molecular target: T8, ApoC3 peptide … D59H (human, cyclic constrained)
T8 peptide: HKFSEFWDLDPEV
How it was run: as §1

[11] = molecular target: T9, ApoC3 peptide … D66H (human, not fully specified (bridges); also: cyclic constrained)
T9 peptide: DKFSEFWHLDPEV
How it was run: as §1

[12] = molecular target: T10, ApoC3 peptide … L67H (human, not fully specified (bridges); also: cyclic constrained)
T10 peptide: DKFSEFWDHDPEV
How it was run: as §1

[13] = molecular target: T11, ApoC3 peptide … P69H (human, not fully specified (bridges); also: cyclic constrained)
T11 peptide: DKFSEFWDLDHEV
How it was run: as §1

[14] = molecular target: T12, ApoC3 peptide … W65I (human, not fully specified (bridges); also: cyclic constrained, ring type and places not given here)
T12 peptide: DKFSEFIDLDPEV
How it was run: as §1

[15] = molecular target: T13, ApoC3 peptide … L67K (human, not fully specified (bridges); also: cyclic constrained)
T13 peptide: DKFSEFWDKDPEV
How it was run: as §1

[16] = molecular target: T14, ApoC3 peptide … D59L (human, cyclic constrained)
T14 peptide: LKFSEFWDLDPEV
How it was run: as §1

[17] = molecular target: T15, ApoC3 peptide … P69L (human, not fully specified (bridges); also: cyclic constrained)
T15 peptide: DKFSEFWDLDLEV
How it was run: as §1

[18] = molecular target: T16, ApoC3 peptide … F61M (human, not fully specified (bridges); also: cyclic constrained)
T16 peptide: DKMSEFWDLDPEV
How it was run: as §1

[19] = molecular target: T17, ApoC3 peptide … E70M (human, not fully specified (bridges); also: cyclic constrained)
T17 peptide: DKFSEFWDLDPMV
How it was run: as §1

[20] = molecular target: ApoC3 peptide … V71M (human, cyclic constrained)
How it was run: as §1

[21] = molecular target: T18, ApoC3 peptide … D66N (human, not fully specified (bridges); also: cyclic constrained)
T18 peptide: DKFSEFWNLDPEV
How it was run: as §1

[22] = molecular target: ApoC3 peptide … V71N (human, cyclic constrained)
How it was run: as §1

[23] = molecular target: T19, ApoC3 peptide … E70P (human, not fully specified (bridges); also: cyclic constrained)
T19 peptide: DKFSEFWDLDPPV
How it was run: as §1

[24] = molecular target: T20, ApoC3 peptide … W65Q (human, not fully specified (bridges); also: cyclic constrained, ring type and places not given here)
T20 peptide: DKFSEFQDLDPEV
How it was run: as §1

[25] = molecular target: T21, ApoC3 peptide … D66Q (human, not fully specified (bridges); also: cyclic constrained)
T21 peptide: DKFSEFWQLDPEV
How it was run: as §1

[26] = molecular target: ApoC3 peptide … P69Q (human, cyclic constrained)
How it was run: as §1

[27] = molecular target: T22, ApoC3 peptide … F61R (human, not fully specified (bridges); also: cyclic constrained)
T22 peptide: DKRSEFWDLDPEV
How it was run: as §1

[28] = molecular target: ApoC3 peptide … E63R (human, cyclic constrained)
How it was run: as §1

[29] = molecular target: T23, ApoC3 peptide … D66S (human, not fully specified (bridges); also: cyclic constrained)
T23 peptide: DKFSEFWSLDPEV
How it was run: as §1

[30] = molecular target: ApoC3 peptide … V71S (human, cyclic constrained)
How it was run: as §1

[31] = molecular target: ApoC3 peptide … E63T (human, cyclic constrained)
How it was run: as §1

[32] = molecular target: T24, ApoC3 peptide … F64T (human, not fully specified (bridges); also: cyclic constrained)
T24 peptide: DKFSETWDLDPEV
How it was run: as §1

[33] = molecular target: T25, ApoC3 peptide … D66V (human, not fully specified (bridges); also: cyclic constrained)
T25 peptide: DKFSEFWVLDPEV
How it was run: as §1

[34] = molecular target: ApoC3 peptide … D68V (human, cyclic constrained)
How it was run: as §1

[35] = molecular target: T26, ApoC3 peptide … K60W (human, not fully specified (bridges); also: cyclic constrained)
T26 peptide: DWFSEFWDLDPEV
How it was run: as §1

[36] = molecular target: ApoC3 peptide … D68Y (human, cyclic constrained)
How it was run: as §1

B1: anti-ApoC3 antibody 6A6 (antibody, V domains shown)
VH: EVQLVESGGGLVQPGGSLRLSCAASGFTFSSYAGRWVRQVPGKGLEWVSSINAGGGSTSYADSVKGRFTISRDNAKNTLYLQMNSLKPEDTAKYYCTQNSYRYWGQGTRVAVSS
VL: DVVLTQTPGSLSVVPGESASISCKASQSLIHTDGKTYLYWLLQKPGQRPQLLIYQVSSHESGVPDRFTGSGSGTDFTLKISGVKAEDAGVYYCAQATYNPRTFGQGTKLEIK
notes: it was detected with goat anti-human IgG (Fc); also called mAb 6A6; llama antibody 6A6
- % of binding to wild-type peptide [1]: 26.4%
- % of binding to wild-type peptide [2]: 0%
- % of binding to wild-type peptide [3]: 18.9%
- % of binding to wild-type peptide [4]: 152%
- % of binding to wild-type peptide [5]: 26.3%
- % of binding to wild-type peptide [6]: 97.7%
- % of binding to wild-type peptide [7]: 20.5%
- % of binding to wild-type peptide [8]: 168%
- % of binding to wild-type peptide [9]: 1.26%
- % of binding to wild-type peptide [10]: 85.8%
- % of binding to wild-type peptide [11]: 0%
- % of binding to wild-type peptide [12]: 7.67%
- % of binding to wild-type peptide [13]: 19.2%
- % of binding to wild-type peptide [14]: 20.3%
- % of binding to wild-type peptide [15]: 25.8%
- % of binding to wild-type peptide [16]: 68.6%
- % of binding to wild-type peptide [17]: 36.8%
- % of binding to wild-type peptide [18]: 56.5%
- % of binding to wild-type peptide [19]: 2.34%
- % of binding to wild-type peptide [20]: 105%
- % of binding to wild-type peptide [21]: 0%
- % of binding to wild-type peptide [22]: 98.7%
- % of binding to wild-type peptide [23]: 2.53%
- % of binding to wild-type peptide [24]: 38.3%
- % of binding to wild-type peptide [25]: 0%
- % of binding to wild-type peptide [26]: 28.2%
- % of binding to wild-type peptide [27]: 35.6%
- % of binding to wild-type peptide [28]: 5.31%
- % of binding to wild-type peptide [29]: 0%
- % of binding to wild-type peptide [30]: 84.7%
- % of binding to wild-type peptide [31]: 35.9%
- % of binding to wild-type peptide [32]: 215%
- % of binding to wild-type peptide [33]: 0%
- % of binding to wild-type peptide [34]: 0%
- % of binding to wild-type peptide [35]: 78.6%
- % of binding to wild-type peptide [36]: 0%
